Consider three substances from PMC2212291.

The target of the assay is mouse class I molecule H-2 D^b (mouse | mouse (endogenous in MC57)).
For synthetic LCMV peptide GP33-41, the binding plus extraction efficiency worked out at 17%.
Under synthetic LCMV peptide NP396-404 stands 50%; under synthetic LCMV peptide GP276-286, 38%.
